Consider one substance from paper PMC11191641.

This assay addresses His-tagged ferritin-based nanoparticle (FNP): Helicobacter pylori ferritin with N-terminal domain B (S. aureus | Helicobacter pylori). The experiment in a line: BLI. Conditions: Fc fusion.

“NiV-B-G-Fc: Nipah virus Bangladesh attachment glycoprotein G (residues 176-602) fused with a C-terminal human IgG1 Fc (from UniProt P01857)” displayed an equilibrium dissociation constant (Kd) of 9.46 nM.
